Here are results for 3 molecules from PMC2911444 (Journal of molecular biology, 2008).

Assay in all cases: cryo-EM structure
The target of data set [1] is pentameric vertex complex of CIV (vertex protein) (Chilo iridescent virus (CIV)).
Data set [2] has as its target zip protein (CIV minor capsid protein) (Chilo iridescent virus (CIV)).
The data set “cryo-EM structure” concerns the molecule itself.

As to “pentameric vertex complex of CIV (vertex protein) (natural protein)”, in data set [1], the stoichiometry N (commonly a count of units in the complex or per binding partner) was 5.
Consider “zip protein (CIV minor capsid protein) (natural protein)”, for which the stoichiometry N in data set [2] was found to be 2.

B1: P50, the CIV major capsid protein (MCP) (natural protein)
chain: MSISSSNVTSGFIDIATKDEIEKYMYGGKTSTAYFVRETRKATWFTQVPVSLTRANGSANFGSEWSASISRAGDYLLYTWLRVRIPSVTLLSTNQFGANGRIRWCRNFMHNLIRECSITFNDLVAARFDHYHLDFWAAFTTPASKAVGYDNMIGNVSALIQPQPVPVAPATVSLPEADLNLPLPFFFSRDSGVALPTAALPYNEMRINFQFHDWQRLLILDNIAAVASQTVVPVVGATSDIATAPVLHHGTVWGNYAIVSNEERRRMGCSVRDILVEQVQTAPRHVWNPTTNDAPNYDIRFSHAIKALFFAVRNTTFSNQPSNYTTASPVITSTTVILEPSTGAFDPIHHTTLIYENTNRLNHMGSDYFSLVNPWYHAPTIPGLTGFHEYSYSLAFNEIDPMGSTNYGKLTNISIVPTASPAAKVGAAGTGPAGSGQNFPQTFEFIVTALNNNIIRISGGALGFPVL
With B1, the “stoichiometry N” value in “cryo-EM structure” was determined as 3.
